# Assay results: US20260274955A1 (JANUX THERAPEUTICS, published 2026)
# Molecular target: T1, Anti-CD28 Fab (SEQ ID NOs: 202, 203)
# T1 construct: biotinylated and captured on neutravidin coated plates in the phage ELISA
# Experiment: phage ELISA on captured Fab, wells pre-incubated with CD28 antigen (competitor: CD28);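 further: bound clonal phage detected with an HRP-linked anti-M13 antibody, compared against wells that received blocking buffer alone without CD28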
# T1 sequence (VH, as listed by the source, chain 1 of 2): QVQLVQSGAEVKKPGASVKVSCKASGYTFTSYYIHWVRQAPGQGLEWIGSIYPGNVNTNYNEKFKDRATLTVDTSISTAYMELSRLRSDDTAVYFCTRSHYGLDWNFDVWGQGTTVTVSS
# T1 sequence (VL, as listed by the source, chain 2 of 2): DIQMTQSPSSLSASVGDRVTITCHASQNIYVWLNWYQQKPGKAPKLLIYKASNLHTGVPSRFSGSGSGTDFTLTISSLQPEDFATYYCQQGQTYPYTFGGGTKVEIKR
# Description: (§1) Clonal phage were harvested as crude supernatants and screened via standard ELISAs. […] Prior to the addition of clonal phage, wells were incubated with blocking buffer and CD28 antigen or blocking buffer alone. Without washing or aspirating, clonal phage supernatants were then added to the wells and incubated for a short time. Wells were then washed followed by detection of bound phage using a horse radish conjugated anti-M13 antibody.
row,Binder,Anti-CD28 Fab signal in the presence of CD28
1,YCEGHAPEYMYKCL [Phage-235],0.07
2,YCEGHADIYMQKCL [Phage-225],0.07
3,YCAGHLPMYMHKCL [Phage-264],0.18
4,YCQGHLPQYIAKCL [Phage-205],0.08
5,YCEGHTAEYLQKCL [Phage-208],0.1
6,YCEGHSPEYMSHCF [Phage-216],0.09
7,YCAGHLPEHIGKCL [Phage-207],0.07
8,YCQGHMPEYMDKCL [Phage-231],0.07
9,YCDGHSAEYLAKCL [Phage-293],0.08
10,YCDGHLPIYMTQCL [Phage-271],0.08
11,YCDGHVPQYMAKCL [Phage-203],0.07
12,YCDGHAPEYVMKCL [Phage-232],0.1
13,YCEGHLAEYMDKCL [Phage-272],0.07
14,YCDGHELRYMAKCL [Phage-221],0.07
15,YCEGHLSQYMQKCL [Phage-259],0.09
16,YCAGHLEIYMQKCL [Phage-211],0.08
17,YCDGHLPQYMSKCL [Phage-262],0.1
18,YCDGHMPQYMSKCL [Phage-266],0.08
19,YCAGHSPEFMEKCL [Phage-297],0.06
20,YCDGHAIEYMQKCL [Phage-229],0.07
21,YCAGHTQEYMSKCL [Phage-201],0.05
22,YCAGHIEEYMWKCL [Phage-230],0.06
23,YCEGHAIQYMSKCL [Phage-239],0.06
24,YCEGHAPEHMAKCL [Phage-214],0.1
25,YCEGHSMQHMAKCL [Phage-217],0.08

row,Binder,Anti-CD28 Fab signal in the presence of CD28
1,YCEGHAPEYMMKCI [Phage-224],0.06
2,YCDGHSAQYMHKCL [Phage-234],0.06
3,YCDGHVGEYMQKCL [Phage-233],0.08
4,YCDGHLWEYMDKCL [Phage-269],0.06
5,YCSGHAPEYMAKCL [Phage-287],0.06
6,YCMGHQPEYMQKCL [Phage-291],0.08
7,YCEGHRAEYMEKCL [Phage-288],0.06
8,YCEGHAPQHMDKCL [Phage-240],0.08
9,YCAGHSPEYMGKCM [Phage-209],0.06
10,YCAGHLPQYMEKCM [Phage-206],0.08
11,YCEGHSDEYMLKCL [Phage-223],0.07
12,YCDGHSDQYMWKCL [Phage-261],0.11
13,YCEGHAAEYMMKCL [Phage-263],0.07
14,YCEGHLPMYFLKCM [Phage-270],0.06
15,YCDGHLIEYMEKCL [Phage-238],0.06
16,YCDGHLNEYMEKCL [Phage-298],0.06
17,YCEGHLPIYMDKCL [Phage-228],0.08
18,YCEGHSPQYMQKCL [Phage-202],0.06
19,YCEGHSPQYMSKCL [Phage-241],0.07
20,YCDGHAQEFMSKCL [Phage-218],0.12
21,YCEGHAPQYIQKCL [Phage-220],0.07
22,YCLGHAPQYIQKCL [Phage-243],0.14
23,YCDGHLPEYQMKCL [Phage-236],0.08
24,YCDGHAEQYMEKCL [Phage-215],0.07
25,YCDGHFREYMQKCL [Phage-242],0.06

# Molecular target: Anti-CD28 Fab (SEQ ID NOs: 202, 203)
# Experiment: phage binding ELISA on captured Fab;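 further: clonal phage supernatants added briefly to wells pre-incubated with CD28 antigen or with blocking buffer only, then washed, bound phage read by ELISA using HRP-coupled anti-M13 antibody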
# Target sequence in this assay (VH, as listed by the source, chain 1 of 2): as the sequence (VH, as listed by the source, chain 1 of 2) above
# Target sequence in this assay (VL, as listed by the source, chain 2 of 2): as the sequence (VL, as listed by the source, chain 2 of 2) above
# Description: as §1
row,Binder,"Anti-CD28 Fab (SEQ ID NOs: 202, 203) signal"
1,YCDGHSSAYIDKCL [Phage-752],1.05
2,YCEGHSSEYLGKCL [Phage-750],1.05
3,YCDGHLPRYMEKCM [Phage-751],1.05

# Molecular target: Anti-CD28 Fab (SEQ ID NOs: 202, 203)
# Experiment: phage binding ELISA on captured Fab, competitor CD28 antigen;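 further: clonal phage supernatant binding in wells preincubated with CD28 antigen in blocking buffer, detected by HRP-conjugated anti-M13 antibody ELISA, compared with blocking buffer alone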
# Target sequence in this assay (VH, as listed by the source, chain 1 of 2): as the sequence (VH, as listed by the source, chain 1 of 2) above
# Target sequence in this assay (VL, as listed by the source, chain 2 of 2): as the sequence (VL, as listed by the source, chain 2 of 2) above
# Description: as §1
row,Binder,Anti-CD28 Fab signal in the presence of CD28
1,YCDGHSSAYIDKCL [Phage-752],0.06
2,YCEGHSSEYLGKCL [Phage-750],0.09
3,YCDGHLPRYMEKCM [Phage-751],0.06

# Molecular target: T1, Anti-CD28 Fab (SEQ ID NOs: 202, 203)
# Experiment: phage ELISA on captured biotinylated Fab;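 further: wells preblocked with or without CD28 antigen, then clonal phage supernatant added briefly, washed, and bound phage read out by ELISA using HRP-linked anti-M13 antibody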
# Description: as §1
row,Binder,Anti-CD28 Fab signal
1,YCEGHAPEYMYKCL [Phage-235],2.05
2,YCEGHADIYMQKCL [Phage-225],2.06
3,YCAGHLPMYMHKCL [Phage-264],1.99
4,YCQGHLPQYIAKCL [Phage-205],2.09
5,YCEGHTAEYLQKCL [Phage-208],2.09
6,YCEGHSPEYMSHCF [Phage-216],2.08
7,YCAGHLPEHIGKCL [Phage-207],2.09
8,YCQGHMPEYMDKCL [Phage-231],2.05
9,YCDGHSAEYLAKCL [Phage-293],1.93
10,YCDGHLPIYMTQCL [Phage-271],1.97
11,YCDGHVPQYMAKCL [Phage-203],2.1
12,YCDGHAPEYVMKCL [Phage-232],2.05
13,YCEGHLAEYMDKCL [Phage-272],1.96
14,YCDGHELRYMAKCL [Phage-221],2.07
15,YCEGHLSQYMQKCL [Phage-259],2
16,YCAGHLEIYMQKCL [Phage-211],2.09
17,YCDGHLPQYMSKCL [Phage-262],2
18,YCDGHMPQYMSKCL [Phage-266],1.98
19,YCAGHSPEFMEKCL [Phage-297],1.91
20,YCDGHAIEYMQKCL [Phage-229],2.05
21,YCAGHTQEYMSKCL [Phage-201],2.1
22,YCAGHIEEYMWKCL [Phage-230],2.05
23,YCEGHAIQYMSKCL [Phage-239],2.04
24,YCEGHAPEHMAKCL [Phage-214],2.08
25,YCEGHSMQHMAKCL [Phage-217],2.07

row,Binder,Anti-CD28 Fab signal
1,YCEGHAPEYMMKCI [Phage-224],2.06
2,YCDGHSAQYMHKCL [Phage-234],2.05
3,YCDGHVGEYMQKCL [Phage-233],2.05
4,YCDGHLWEYMDKCL [Phage-269],1.97
5,YCSGHAPEYMAKCL [Phage-287],1.94
6,YCMGHQPEYMQKCL [Phage-291],1.93
7,YCEGHRAEYMEKCL [Phage-288],1.93
8,YCEGHAPQHMDKCL [Phage-240],2.04
9,YCAGHSPEYMGKCM [Phage-209],2.09
10,YCAGHLPQYMEKCM [Phage-206],2.09
11,YCEGHSDEYMLKCL [Phage-223],2.06
12,YCDGHSDQYMWKCL [Phage-261],2
13,YCEGHAAEYMMKCL [Phage-263],1.99
14,YCEGHLPMYFLKCM [Phage-270],1.97
15,YCDGHLIEYMEKCL [Phage-238],2.04
16,YCDGHLNEYMEKCL [Phage-298],1.91
17,YCEGHLPIYMDKCL [Phage-228],2.06
18,YCEGHSPQYMQKCL [Phage-202],2.1
19,YCEGHSPQYMSKCL [Phage-241],2.04
20,YCDGHAQEFMSKCL [Phage-218],2.07
21,YCEGHAPQYIQKCL [Phage-220],2.07
22,YCLGHAPQYIQKCL [Phage-243],2.04
23,YCDGHLPEYQMKCL [Phage-236],2.05
24,YCDGHAEQYMEKCL [Phage-215],2.08
25,YCDGHFREYMQKCL [Phage-242],2.04
